Laboratory results taken from patent publication US20260258115A1 (MAPP BIOPHARMACEUTICAL, published 2026).

B1: ADI-20974 (antibody, V domains shown)
VH: EVQLVESGGGLVKPGGSLRLSCAASGFSFSSYQINWVRQAPGKGLEWVSSISGGSSYTDYADSIKGRFTISRDNAKKSAFLQMKSLRADDTAVYYCARALMATAGGLAFDIWGQGTMVTVSS
VL: QPVLTQPPSVSGAPGQRVTISCTGSGSNIGAGYDVHWYQQVPGTAPKLLILRNTNRPSGVPDRFSGSKSGTSASLAITGLQAEDEADYYCQSYDRSLSVVFGGGTKLTVL
B2: ADI-20964 (antibody, V domains shown)
VH: QVQLVQSGAEVKKPGASVKVSCKASGYTFTHYGISWVRQAPGQGLEWMGWISAYNGNTNYAQKLQGRVTMTTDTSTSTAYMEVRSLRYDDTAVYYCARDVPVEAATSPEFWGQGTLVTVSS
VL: DIVMTQTPLSLPVTLGQPASISCRSSQSLVYSDGNTYLSWFQQRPGQSPRRLIYKVSNRDSGVPNRFSGSGSGTDFTLKISRVEAEDVGVYYCVQNTHWPAYTFGQGTKVEIK
B3: ADI-41576 (antibody, V domains shown)
VH: QVTLKESGPTLVKPTQTLTLSCSFSGFSLSAYAVGVGWIRQPPGKALEWLALIYWDDDKRYSPSLETRLTITKDTSKNQVVLTMTKMDPVDTATYYCVYSYNGYYEYMDVWGNGTTVTVSS
VL: DIVMTQSPATLSLSPGERATLSCRASQSVSNYLAWYQQKPGQAPRLLISGASNRATGIPDRFSGSGSGTDFTLTITTPEPEDFAVYYCQQRNAWPRTFGQGTKVEIK
notes: also called Ab 851; Antibody Number 851
B4: ADI-41582 (antibody, V domains shown)
VH: EVQLVESGPGLVKPSQTLSLTCTVSGGPISSGVYYWSWIRQHPGKGLESIGYIYYSGSTHYNPSLKTRVTISLDTSKNQFSLKLSSVTAADTAVYYCARGCSGGSCYLYAFDIWGQGTTVTVSS
VL: QPVLTQPPSVSVAPGQTARITCGGNNIGTKSVHWYQQKPGQAPLLVVYDDSDRPSGIPERFSGSNSGNTATLTISRVEAGDEADFYCQVWDYATDHVVFGGGTKLTVL
notes: also called Ab 856; Antibody Number 856
B5: ADI-41610 (antibody, V domains shown)
VH: EVQLLESGGGVVQPGRSLRLSCAASELSFRNYGMHWVRQAPGKGLEWVAVISYDGNDKYYADSVKGRFTISRDNSKKTLYLQMDSLRAEDTAVYYCAKEGAYCGGDCFSSWGQGTLVTVSS
VL: GIQLTQSPSSLSASVGDRVTITCRASQSSSSYLNWYQQKPGKAPKLLIYAASSLQSGVPSRFSGSGSGTDFTLTISSLQPEDFATYYCQQSYSFGGGTKVEIK
notes: also called Ab 884; Antibody Number 884
B6: ADI-41817 (antibody, V domains shown)
VH: QVQLVQSGAEVKKPGESLKISCKGPGYSFTTYWIGWVRQMPGKGLEWMGIIYPGDSDTKYSPSFQGQVTITADKSIATAYLQWSRLKASDTAVYYCATVVTYADNIRWFDSWGQGTLVTVSS
VL: QSALTQPASVSGSPGQSITISCTGTSGDVGGYKFVSWYQHHPGKAPKLVIYDVANRPSGVSDRFSGSKSGTTASLTISGLQAEDEADYYCSSYTSSSTYVFGTGTKVTAL
B7: ADI-41818 (antibody, V domains shown)
VH: EVQLVESGGGLVQPGGSLRLSCAASGFTVNTNYMSWVRQAPGKGLEWVSIIYSSGSTSYADSVKGRFTISRDNSENTLYLQMHTLRAEDTAVYYCVRERTPFYYVSSGYWDSWGQGTLVTVSS
VL: EIVLTQSPGTLSLSPGERATLSCRASQSVDSSYLAWYQQKPGQAPRLLIFGASSRATGIPDRFSGSGSGTDFTLTISRLEPEDFAVYYCQQYGFSYTFGQGTKVEIK
B8: ADI-41842 (antibody, V domains shown)
VH: QVQLVQSGAEVKKPGASVRVSCKASGYTFTHYDINWVRQAPGQGLEWMGWINPNSGDTDYAQKFQGRVTMTVDTSISTAYLDLRSLTSADAAVYYCARGGAYATNGYYIIWFDPWGQGTLVTVSS
VL: DIVVTQSPSSLSASVGDRVTITCRASQSISRYLNWFQKKPGKAPHLLIYAASILQSEVPSRFSGSGSGTDFTLTISSLQPEDFATYYCQQSYNSPYTFGPGTKVDIK
notes: also called Ab 942; Antibody Number 942
B9: ADI-41814 (antibody, V domains shown)
VH: EVQLLESGPTLVKPTQTLTLTCTFSGFSLSTFGVGVGWIRQPPGKALECLALIYWDDDKRYSPSLKSRLTITRDTSKNQVVLTMTNMDPVDTATYYCAHRRSSTVTTGFFDYWGRGTLVTVSS
VL: QPVLTQPPSVSGAPGQRVTVSCTGNSSNIGAGHGAHWYQQLPGTAPKLLIYGSTDRPSGVPDRFFGSQSGTSASLVITELRAEDEADYYCQSFDSSLSIWVFGGGTKLTVL
notes: also called Ab 921; Antibody Number 921
B10: ADI-41841 (antibody, V domains shown)
VH: EVQLLESGGGLVKPGGSLRLSCAASGFSFSYYSMNWVRQTPGKGLEWVSSISDRSSYISYADSVKGRFTISRDNAKNSLYLQMNSLRAEDTAVYYCARDQYESYAFDIWGQGTTVTVSS
VL: DIQVTQSPSSLSASVGDRITITCQASQDVGNYLNWYQQKVGKAPKLLIHDASDLETGVPSRFSGSGSGTYFTFTISSLQPEDFATYYCQPYDNLRPVTFGQGTRLEIK
B11: ADI-14583 (antibody, V domains shown)
VH: QVQLVQSGAEVKEPGASVKVSCKASGYTFTNYGISWVRQAPGQGLEWLGWISAYNGNIHYAQKVQGRVTMTTDTSTSTGFMELRSLRSDDTAVYYCAREPPVIAAGDFQHWGQGTLVTVSS
VL: ETTLTQSPLSLPVTLGQPASISCRSSQSLVHSNGNTYLSWFQQRPGQSPRRLIYRVSNRDSGVPDRFSGSGSGTDFTLKISRVEAEDVGLYYCMQGTHWPPDFGQGTRLEIK
B12: ADI-14334 (antibody, V domains shown)
VH: EVQLVESGGGLVKPGGSLRLSCAASGVTVSSYYMTWVRQAPGKGLEFISDISSSSTYTNYADSVKGRFTISRDNAKSSLYLQMNNLRAEDTAVYYCARLGITVTGVGYFDLWGRGTLVTVSS
VL: QPGLTQPPSVSGAPGQRVTISCTGSSSNIGAGYDVHWYQQLPGTAPKLLIHDNNNRPSGVPDRFSGSKSGTSASLAITGLQVEDEADYYCQSYDSSLSNYVFGTGTKLTVL
B13: ADI-20998 (antibody, V domains shown)
VH: QVQLVQSGGGVVQPGRSLRLSCAASGFTLSTYGMHWVRQAPGKGLEWVAVIYYDESNKFYADSVQGRFTISRDDSKNTLFLQMNSLRAEDTAVYYCARESRPRGYSYSDFDSWGQGTLVTVSS
VL: QPGLTQPRSVSGSPGQSVTISCTGTSSDVGTFNYVSWYQQHPGKAPKLMIYDVNQRPSGVPDRFSGSKSGNTASLTISGLQAEDEADYYCCAYAGYYSFGGGTKLTVL

Biological target: T1, RSV prefusion F (preF), DS-Cav1 stabilized trimer, subtype A (Respiratory Syncytial Virus, subtype A, UniProt P03420 26-513)
Test: BLI, apparent IgG KD (Table 9A)

Binder | Kd
B1 | 0.29 nM
B2 | 0.36 nM

Biological target: RSV prefusion F (preF), DS-Cav1 (Respiratory syncytial virus, UniProt P03420 26-513)
Test: BLI, IgG on anti-human IgG sensor

Binder | binding result
B3 | no binding (tested: 100 nM antigen)
B4 | no binding (tested: 100 nM antigen)
B5 | no binding (tested: 100 nM antigen)

Biological target: T1, RSV prefusion F (preF), DS-Cav1 …
Test: BLI, IgG on anti-human IgG sensors, 100 nM antigen, apparent KD

Binder | Kd
B6 | 6.94 nM
B7 | 0.676 nM
B8 | 0.717 nM
B9 | 3.39 nM
B10 | 0.121 nM

Biological target: T2, RSV postfusion F (postF), F ΔFP trimer, subtype A (Respiratory Syncytial Virus, subtype A, UniProt P03420 26-513)
Test: as above

Binder | Kd
B6 | 15.8 nM
B7 | 0.347 nM
B8 | 0.442 nM
B9 | 0.915 nM
B10 | 0.265 nM

Biological target: RSV postfusion F (postF), F ΔFP (Respiratory syncytial virus, UniProt P03420 26-513)
Test: BLI, IgG on anti-human IgG sensor, 100 nM antigen

Binder | Kd
B3 | 1.43 nM
B4 | 0.911 nM
B5 | 0.978 nM

Biological target: T3, RSV F on RSV subtype A virus (RSV-A2) (Respiratory Syncytial Virus, subtype A, …, UniProt P03420 26-574)
Test: cell-based or functional assay

Binder | Neutralization IC50 (RSV subtype A)
B6 | > 25 µg/mL
B7 | > 25 µg/mL
B8 | > 25 µg/mL
B9 | > 25 µg/mL
B10 | 0.04 µg/mL

Biological target: RSV F on RSV-A2 virus (Respiratory syncytial virus, RSV-A2, UniProt P03420 26-574)
Test: cell-based or functional assay

Binder | Neutralization IC50 (RSV subtype A)
B3 | > 25 µg/mL
B4 | > 25 µg/mL
B5 | > 25 µg/mL

Biological target: T2, RSV postfusion F (postF), F ΔFP trimer, …
Test: BLI, IgG (Table 9A)

Binder | binding result
B1 | no binding
B2 | no binding

Biological target: T3, RSV F on RSV subtype A virus (RSV-A2)
Test: cell-based or functional assay
Remark: another data set of the same source

Binder | Neutralization - RSV A2 IC50 (pM) | neut IC50 (ug/ml) subtype A (graham)
B11 | 125 pM | 0.05 µg/mL
B12 | 189 pM | 0.05 µg/mL
B1 | 75.4 pM | 0.003 µg/mL
B2 | 162 pM | 0.06 µg/mL
B13 | 74 pM | 0.03 µg/mL

Biological target: RSV F on RSV subtype B virus (mKate-RSV B 18537) (Respiratory Syncytial Virus, subtype B, …, UniProt P13843 26-574)
Test: cell-based or functional assay

Binder | neut IC50 (ug/ml) subtype B (graham)
B11 | 0.06 µg/mL
B12 | 0.11 µg/mL
B1 | 0.09 µg/mL
B2 | 0.14 µg/mL
B13 | > 25 µg/mL
